Laboratory results from patent US5583112A, “Saponin-antigen conjugates and the use thereof” (priority 1992, dated 1996).

Experiments:
[1] = system: anti-lysozyme IgG; experiment: Immunization of mice with QA-21-lysozyme conjugate (total anti-lysozyme IgG); format: in vivo, C57bl/6 mice; conditions: days 0 and 14 intradermal; bled day 21
Description: The QA-21-lysozyme from Example 18 conjugate was used to immunize mice (C57bl/6), with and without added QA-21 as adjuvant. Ten nice (9 weeks of age at the beginning of the immunization) were immunized per group. Immunizations were made intradermally at day 0 and day 14 with a total volume of 0.2 ml (PBS buffer, pH 7). The vaccines contained the following dosages of antigen and adjuvant:
The mice were bled on day 21 and the anti-lysozyme IgG titers were determined. Microtitre plates (in the alternative, Co-bind® plates from Micromembranes may be used) were incubated at 4° C. overnight with 10 μg/ml of lysozyme in about 100 μl of PBS. The plates were then washed two times with PBS and blocked for one hour with 150 μl/well of 10% normal goat serum at room temperature. The plates were then washed two times with 0.05% Tween-20 in water.
The mice sera were incubated with the lysozyme coated plates as follows. The individual serum samples (10μl) diluted with 10% normal goat serum in PBS to make 100 μl, as well as serial dilutions thereof (1:10) were added to the wells and incubated for 1 hour at room temperature. The wells were then washed four times with 0.05% Tween-20. […] The conjugate was then detected by tetramethylbenzidine substrate (Bos, E.S. et al., J. Immunoassay 2:187 (1981)). After incubation, the OD450 was read. […]

[2] = system: anti-lysozyme antibodies (IgG1, IgG2B, IgG2A, IgM, IgG3); experiment: Isotyping of anti-lysozyme antibodies; format: in vivo, C57bl/6 mice; conditions: FIG. 22
Description: Next, the anti-lysozyme antibodies produced by each group of mice were isotyped. Microtitre plates were incubated at 4° C. overnight with 10 μg/ml of lysozyme in about 100 μl of PBS. The plates were then washed two times with PBS and blocked for one hour with 150 μl/well of 10% normal goat serum in PBS at room temperature. The plates were then washed two times with 0.05% Tween-20 in water.
The mice sera were incubated with the lysozyme coated plates as follows. The serum samples were tested in separate lanes for IgG1, IgG2B, IgG2A, IgM and IgG3. The individual serum samples (10 μl) were diluted with 10% normal goat serum in PBS to make 100 μl, and serial dilutions thereof (1:10) were added to the wells and incubated for 1 hour at room temperature. The wells were then washed four times with 0.05% Tween-20. […] The conjugates were then detected by adding 100 μl per well of 1 mg/ml p-nitrophenylphosphate in 0.1M borate, pH 9.0. After incubation for 6 and 24 hours at room temperature, tile OD410 was read.

Substance | Anti-lysozyme antibody response (immunogenicity) [1] | Antibody isotypes produced [2]
lysozyme-QA-21 conjugate: QA-21 coupled via glucuronic acid to lysozyme, 1:1 molar ratio | higher antibody titer than either of the groups receiving free QA-21 | –
lysozyme: a poorly immunogenic, very hydrophilic protein | poorly immunogenic | only IgM antibodies were produced
